T1: wild-type MLLT1 YEATS domain polypeptide (residues 1-138 of human MLLT1) (human, UniProt Q03111 1-138)
T1 construct: MLLT1 (ENL), human, YEATS domain, residues 1-138; codon-optimized DNA in pET28 with a thrombin cleavage site between the 6His tag and the protein; also called ENL; YEATS1; source: E. coli BL21(pLysS), purified (Ni-NTA sepharose, size exclusion chromatography)
T1 sequence (looked up): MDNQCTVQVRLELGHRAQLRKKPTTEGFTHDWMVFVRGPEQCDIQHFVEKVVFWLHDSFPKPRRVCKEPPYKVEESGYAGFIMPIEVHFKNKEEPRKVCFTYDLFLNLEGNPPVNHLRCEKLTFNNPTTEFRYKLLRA

T2: MLLT1 YEATS domain polypeptide p.112_114PPV>L (human, UniProt Q03111 1-138, p.112_114PPV>L)
T2 construct: Somatic mutation found in tumours; source: E. coli BL21(pLysS), purified (Ni-NTA sepharose, size exclusion chromatography)
T2 sequence (looked up): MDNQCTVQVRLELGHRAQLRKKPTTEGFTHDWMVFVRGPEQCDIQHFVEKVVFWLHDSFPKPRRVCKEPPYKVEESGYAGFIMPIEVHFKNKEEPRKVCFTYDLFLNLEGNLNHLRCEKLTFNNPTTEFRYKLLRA


Experiments:
Experiment in all cases: ITC; YEATS domain in the measurement cell (90-130 uM), histone peptides in the injection syringe (1.2 mM); 50 mM Hepes pH 7.4, 300 mM NaCl, 5 mM beta-mercaptoethanol, 25 °C; MicroCal ITC200 and TA Nano microcalorimeters; triplicate
[1] = molecular target: MLLT1 YEATS domain polypeptide p.111_113NPP>K (human) (UniProt Q03111)
[2] = molecular target: wild-type MLLT1 YEATS domain polypeptide (residues 1-138 of human MLLT1) (human) (UniProt Q03111)
[3] = molecular target: T1, wild-type MLLT1 YEATS domain …; settings: both partners purified
[4] = molecular target: T2, MLLT1 YEATS domain polypeptide …; settings: both partners purified

Row | Kd [1] [µM] | Kd [2] [µM] | Kd [3] [µM] | Kd [4] [µM] | Molecule
1 | 330 | 140 |  |  | H3K27ac histone H3 tail peptide
2 |  |  | 60 | 107 | ARTKQTARKST (acetyl-lysine at K9) [H3K9ac histone H3 tail peptide]

Reference: article PMC4686660, “MLLT1 YEATS domain mutations in clinically distinctive Favourable Histology Wilms tumours” (Nature Communications, 2015)
